Measurements published in patent US20230136252A1 (NANJING LEGEND BIOTECH, published 2023).
Each block holds one binder with its values, some of them ahead of it.

How the values were obtained:
[1] = molecular target: T1, human GPC2 on cells (SH-SY5Y, IMR-32, HEK293T/hGPC2) (human, UniProt Q8N158 24-554); test: flow cytometry on SH-SY5Y cells, VHH-His detected with anti-His tag antibody (iFluor 647), median fluorescence intensity, four-parameter fit
T1 construct: whole, on cells; GPI-anchored proteoglycan on the cell surface; also called cell-surface human GPC2; GPC2 positive cells
T1 sequence (looked up): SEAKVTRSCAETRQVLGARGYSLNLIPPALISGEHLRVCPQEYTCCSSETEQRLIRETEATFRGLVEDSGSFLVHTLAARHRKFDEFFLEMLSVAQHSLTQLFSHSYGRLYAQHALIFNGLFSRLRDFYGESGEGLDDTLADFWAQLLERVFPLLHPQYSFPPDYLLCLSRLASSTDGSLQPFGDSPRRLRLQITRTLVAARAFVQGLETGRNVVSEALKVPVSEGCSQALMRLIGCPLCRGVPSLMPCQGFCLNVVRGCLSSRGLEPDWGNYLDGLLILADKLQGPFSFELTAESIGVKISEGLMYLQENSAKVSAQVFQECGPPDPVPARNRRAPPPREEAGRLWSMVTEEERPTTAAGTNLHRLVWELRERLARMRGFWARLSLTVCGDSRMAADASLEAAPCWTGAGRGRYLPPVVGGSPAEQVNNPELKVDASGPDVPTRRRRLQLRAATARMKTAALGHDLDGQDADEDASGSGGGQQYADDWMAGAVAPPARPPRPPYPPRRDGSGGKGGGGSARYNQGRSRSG
Protocol: (§1) Binding affinities of humanized VHH proteins AS70950VH6, AS71529VH6, AS72669VH6 and AS71529VH6-AS70950VH6 anti-GPC2 VHH-HIS proteins to human GPC2 expressing cells (SH-SY5Y and HEK293T/hGPC2) and cynomolgus monkey GPC2 expressing cell (HEK293T/cynoGPC2) were determined using flow cytometry. Briefly, serially diluted anti-GPC2 VHH-HIS proteins were incubated with 2×10⁵ target cells at 4° C. for 30 mins. After washing, cells were further labelled with THE™ His tag Antibody (iFluor 647) (Genescript, #A01802) at 4° C. for 30 mins. Fluorescence intensity was measured by flow cytometry. A four parameters variable slope curve was fitted to each group using GraphPad Prism for Windows Version 6.02. As shown in FIG. 4A-FIG. 4C, exemplary AS70950VH6, AS71529VH6, AS72669VH6 and AS71529VH6-AS70950VH6 specifically bind to SH-SY5Y, HEK293T/hGPC2 and HEK293T/cynoGPC2 in a dose-dependent manner.

[2] = molecular target: T1, human GPC2 on cells (SH-SY5Y, IMR-32, …); test: flow cytometry on HEK293T/hGPC2 cells, VHH-His detected with anti-His tag antibody (iFluor 647), median fluorescence intensity, four-parameter fit
Protocol: as §1

[3] = molecular target: T2, cynomolgus monkey GPC2 on cells (HEK293T/cynoGPC2) (Cynomolgus monkey (Macaca fascicularis), UniProt A0A2K5X5G1 24-551); test: flow cytometry on HEK293T/cynoGPC2 cells, VHH-His detected with anti-His tag antibody (iFluor 647), median fluorescence intensity, four-parameter fit
T2 construct: whole, on cells; also called Cynomolgus monkey (Macaca fascicularis) GPC2
T2 sequence: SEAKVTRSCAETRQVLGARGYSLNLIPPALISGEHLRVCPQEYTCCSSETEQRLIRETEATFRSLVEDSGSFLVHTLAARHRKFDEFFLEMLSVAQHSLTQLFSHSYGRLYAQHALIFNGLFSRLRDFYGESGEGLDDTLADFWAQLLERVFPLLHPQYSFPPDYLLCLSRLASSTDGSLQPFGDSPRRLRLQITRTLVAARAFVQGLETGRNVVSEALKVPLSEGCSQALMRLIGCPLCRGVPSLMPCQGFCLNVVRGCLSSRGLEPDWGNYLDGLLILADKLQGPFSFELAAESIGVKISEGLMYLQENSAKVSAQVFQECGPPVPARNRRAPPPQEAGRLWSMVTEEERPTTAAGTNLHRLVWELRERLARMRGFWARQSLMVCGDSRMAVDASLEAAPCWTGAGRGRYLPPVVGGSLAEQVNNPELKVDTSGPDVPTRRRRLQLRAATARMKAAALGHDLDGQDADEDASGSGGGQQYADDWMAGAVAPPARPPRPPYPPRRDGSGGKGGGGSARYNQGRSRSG
Protocol: as §1

[4] = molecular target: T3, recombinant human GPC4-Fc (human, UniProt O75487 19-529, limits assumed); test: ELISA on GPC4 coated plate; by paragraph 266 the VHH-His form with anti-His tag secondary was used on GPC4-Fc; the sheet's title prints the hIgG1Fc form and its legend 'rhGPC4-his'
T3 construct: Bought protein; also called RD System Cat #9195-GP; not shown: Fc
T3 sequence (looked up): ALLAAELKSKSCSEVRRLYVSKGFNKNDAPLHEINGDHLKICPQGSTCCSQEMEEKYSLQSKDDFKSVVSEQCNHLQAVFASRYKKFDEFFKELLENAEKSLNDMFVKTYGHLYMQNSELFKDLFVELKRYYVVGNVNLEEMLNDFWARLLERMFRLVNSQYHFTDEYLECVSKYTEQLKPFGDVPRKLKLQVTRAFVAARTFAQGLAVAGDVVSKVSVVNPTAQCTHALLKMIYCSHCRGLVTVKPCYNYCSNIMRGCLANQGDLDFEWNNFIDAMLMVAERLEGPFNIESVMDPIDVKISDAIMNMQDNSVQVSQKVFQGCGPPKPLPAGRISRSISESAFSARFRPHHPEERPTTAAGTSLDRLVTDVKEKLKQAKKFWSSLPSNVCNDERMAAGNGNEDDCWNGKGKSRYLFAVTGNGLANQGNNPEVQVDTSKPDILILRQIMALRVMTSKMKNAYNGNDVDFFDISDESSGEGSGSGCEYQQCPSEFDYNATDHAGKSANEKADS
Protocol: To evaluate the specificity of humanized anti-GPC2 VHH5 to recombinant human GPC2 protein, an ELISA-based binding assay was conducted to determine the differential target proteins binding of anti-GPC2 VHH5. Briefly, microplates were coated with 2 μg/mL recombinant human GPC1-His (RD System, Cat #4519-GP), GPC2-His (RD System, Cat #2304-GP), GPC3-His (ACRO, Cat #GP3-H5223), GPC4-Fc (RD System, Cat #9195-GP), GPC5-His (RD System, Cat #2607-G5/CF), GPC6-His (RD System, Cat #2845-GP) or recombinant mouse GPC2-His (RD System, Cat #2355-GP) proteins. Recombinant human protein coated plates were blocked with skim milk. Serially diluted humanized VHH-hIgG1Fc recombinant antibodies were added to each well of the plates and incubated at 4° C. for 1.5 h. Samples were further labelled with HRP-conjugated goat anti human IgG (H+L) secondary antibody (Genescript, Cat #A00166-1) and signal was developed with 3,3′,5,5′-Tetramethylbenzidine (TMB) substrate according to manufacturer's instruction. For the GPC4, VHH-His recombinant antibodies and anti-His tag secondary antibody (Genescript, Cat #A00612) were added to the GPC4-Fc coated plates instead. Optic density at 450 nm was measured by plate reader.

[5] = molecular target: T4, recombinant human GPC2-His protein (human, UniProt Q8N158 24-554, limits assumed); test: SPR, Biacore T200, GPC2-His amine-coupled to CM5 chip, VHH-hIgG1Fc as analyte, 1:1 model
T4 construct: Bought protein; The SPR paragraph gives no catalogue number for GPC2-His; also called recombinant Human Glypican 2 Protein; recombinant human GPC2 protein; not shown: His tag
T4 sequence (looked up): T1 sequence (looked up)
Protocol: Each of the exemplary anti-GPC2 VHH sequences was cloned into a vector comprising a human IgG1Fc fragment (hlgG1Fc) sequence to facilitate recombinant expression of anti-GPC2 VHH-hlgG1Fc. Recombinant proteins were obtained and purified for SPR assays. The affinity of each anti-GPC2 VHH-hIgG1Fc for GPC2 was determined by SPR using a BIACORE® T200 analytical system (GE Healthcare). Briefly, recombinant human GPC2-His protein was covalently coupled to a CM5(s) sensor chip using an amine coupling kit. Exemplary VHH-hIgG1Fc proteins were serially diluted in running buffer (10 mM HEPES, 150 mM NaCl, 3 mM EDTA, 0.05% Tween-20, pH 7.4) and injected over the chip cell at a flowrate of 100 μL/min for 100 seconds followed by buffer-only injection for 300 seconds to allow for antibody dissociation. The dissociation […] (KD) were determined using the BIACORE® T200 evaluation software version 3.0 (Langmuir binding, local fit, 1:1 binding model).

B1: AS71529VH6-AS70950VH6 anti-GPC2 VHH-His protein (VHH)
chain: EVQLVESGGGLVQPGGSLRLSCAVSEYRYSSRYCMGWFRQAPGKGREGVAAIDSNGSADYVDSVKGRFTISKDNSKNTLYLQMNSLRAEDTAMYYCAADHLAYDCYSGATSVFRYWGQGTLVTVSSGGGGSGGGGSGGGGSEVQLVESGGGLVQPGGSLRLSCAISEFTYKNTCVGWFRQAPGKGREGVAAIDSDGNTNYVDSVKGRFTISQDNSKNTVYLQMNSLRAEDTAMYYCAAGAYCGRLLLWIGNYAYWGQGTLVTVSSHHHHHH
notes: Tandem of two different anti-GPC2 VHH domains
EC50 (read off the curve) [1]: ~3 nM
EC50 (read off the curve) [2]: ~5 nM
EC50 (read off the curve) [3]: ~5 nM

B5: AS70950VH6 anti-GPC2 VHH-His protein (VHH)
VHH: EVQLVESGGGLVQPGGSLRLSCAISEFTYKNTCVGWFRQAPGKGREGVAAIDSDGNTNYVDSVKGRFTISQDNSKNTVYLQMNSLRAEDTAMYYCAAGAYCGRLLLWIGNYAYWGQGTLVTVSS
EC50 (read off the curve) [1]: ~3 nM
EC50 (read off the curve) [2]: ~2 nM
EC50 (read off the curve) [3]: ~5 nM
binding result [4]: no binding (tested: about 300 nM)

B6: AS71529VH6 anti-GPC2 VHH-His protein (VHH)
VHH: EVQLVESGGGLVQPGGSLRLSCAVSEYRYSSRYCMGWFRQAPGKGREGVAAIDSNGSADYVDSVKGRFTISKDNSKNTLYLQMNSLRAEDTAMYYCAADHLAYDCYSGATSVFRYWGQGTLVTVSS
EC50 (read off the curve) [1]: ~100 nM

B9: AS71529VH6-AS70950VH6-hIgG1Fc (Fc fusion)
chain: EVQLVESGGGLVQPGGSLRLSCAVSEYRYSSRYCMGWFRQAPGKGREGVAAIDSNGSADYVDSVKGRFTISKDNSKNTLYLQMNSLRAEDTAMYYCAADHLAYDCYSGATSVFRYWGQGTLVTVSSGGGGSGGGGSGGGGSEVQLVESGGGLVQPGGSLRLSCAISEFTYKNTCVGWFRQAPGKGREGVAAIDSDGNTNYVDSVKGRFTISQDNSKNTVYLQMNSLRAEDTAMYYCAAGAYCGRLLLWIGNYAYWGQGTLVTVSS
notes: Two different anti-GPC2 VHH domains in tandem, fused to a human IgG1Fc fragment; also called tandem anti-GPC2 VHH-hIgG1Fc; not shown: human IgG1 Fc fragment (hIgG1Fc)
Kd [5]: 0.19 nM
koff [5]: 6.1e-05 s⁻¹
kon [5]: 320000 M⁻¹ s⁻¹

Other lines, results leading:

binding result [4]: no binding (tested: about 300 nM)
B2: AS79236VH6 VHH-His recombinant antibody (VHH)
VHH: EVQLVESGGGLVQPGGSLRLSCAVSGYTYSSYCMAWFRQAPGKGLEGVASIDAGGRTTYVDSVKGRFTISKDNAKNSLYLQMNSLRAEDTAMYYCAVDVRTRCGGTWDGEAVYFPYWGQGTLVTVSS
notes: the result sentence still names the hIgG1Fc form

EC50 (read off the curve) [1]: ~2 nM
EC50 (read off the curve) [2]: ~4 nM
EC50 (read off the curve) [3]: ~5 nM
B3: AS72669VH6 anti-GPC2 VHH-His protein (VHH)
VHH: QVQLVESGGGVVQPGGSLRLSCAASRFTYSSYCMGWIRQAPGKGREGVAIFYTGGGRTYYADSVKGRFTISQDNSKNTLYLQMNSLRAEDTAVYYCVAGFYCSGGYWEGDFGYWGQGTLVTVSS

Kd [5]: 0.15 nM
koff [5]: 7.7e-05 s⁻¹
kon [5]: 520000 M⁻¹ s⁻¹
B4: AS72669VH6-hIgG1Fc (Fc fusion)
chain: B3 VHH
notes: also called anti-GPC2 VHH-hIgG1Fc; not shown: human IgG1 Fc fragment (hIgG1Fc)

Kd [5]: 5.1 nM
koff [5]: 0.0044 s⁻¹
kon [5]: 850000 M⁻¹ s⁻¹
B7: AS71529VH6-hIgG1Fc (Fc fusion)
chain: B6 VHH
notes: as for B4

binding result [4]: no binding (tested: about 300 nM)
B8: AS78117VH4 VHH-His recombinant antibody (VHH)
VHH: EVQLVESGGGLVQPGGSLRLSCIVSRYTYATYSMAWFRQAPGKGLEGVSGLDSVGATGYAESVKGRFTISRDNSKNTLYLQMNSLRAEDTAVYYCVVDPASAKVTYGSWSTPSYAYWGQGTLVTVSS
notes: as for B2
